This note sets out measurements from PMC7251975 (Biochemistry, 2016).

As usually defined, the stoichiometry N is a count of units in the complex or per binding partner. As a reminder, the Kd is the equilibrium constant for the complex coming apart. A lower Kd goes with tighter binding.

Assay [1] concerns the target rabbit STEAP1 (Six Transmembrane Epithelial Antigen of Prostate member 1) with residues 2-42 truncated (rabbit). The experiment in a line: SEC-MALS.
The target is the same in assay [2]. Kind of assay: SEC. (SEC sorts molecules by how far they enter the pores of the column.)
Assay [3] deals with rSTEAP1 (Six Transmembrane Epithelial Antigen of Prostate 1) (Oryctolagus cuniculus, UniProt G1SWI4). Kind of assay: fluorescence titration. The assay is classed as binding.
Chain of rSTEAP1 (Six Transmembrane Epithelial Antigen of Prostate 1) (G1SWI4 43-352): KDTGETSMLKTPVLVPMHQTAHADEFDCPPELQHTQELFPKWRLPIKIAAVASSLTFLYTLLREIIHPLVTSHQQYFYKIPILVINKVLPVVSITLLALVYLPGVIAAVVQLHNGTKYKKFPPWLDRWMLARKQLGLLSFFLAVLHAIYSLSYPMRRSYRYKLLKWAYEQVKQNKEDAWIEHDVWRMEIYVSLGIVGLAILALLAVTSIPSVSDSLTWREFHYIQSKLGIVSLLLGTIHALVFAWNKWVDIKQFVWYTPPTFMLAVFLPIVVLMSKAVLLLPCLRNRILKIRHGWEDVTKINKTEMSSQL

“rabbit STEAP1 (Six Transmembrane Epithelial Antigen of Prostate member 1) with residues 2-42 truncated (domain or fragment)”: the stoichiometry N in assay [1] and in assay [2] was 3 each time.
Consider `Cc1cc2nc3c(=O)[nH]c(=O)nc-3n(C[C@H](O)[C@H](O)[C@H](O)COP(=O)(O)OP(=O)(O)OC[C@H]3O[C@@H](n4cnc5c(N)ncnc54)[C@H](O)[C@@H]3O)c2cc1C` [FAD], for which the Kd in assay [3] was 32.3 ± 1.3 µM.
